Assay: soluble on expression in E. coli; label from the status in PepcDB or PDB records

Question: Which “soluble on expression in E. coli” value does the source give for “MGSDKIHHHHHHMIDMNLILKKKFQEISEVDDFISKASTETDYFEPSTLSHGIPGIILFLDAYQKVFDINTEQIVHKYIMKLAPYLQSGQYNNSLFGGLSGIAFSMDLASQNGKNYQNILNNIDGHIVNEIENKFDQILQEPLNPLNYDTVSGLAGIGRYLLNRVDENEFNVKALKSILVYFKDIQYSKNSWVVPQESQFLESDKNYFTEGNINLGLAHGVLGPMSLFALCVIKGITIENHQHILKDMYKFIMDEKFCNHERWLQRYDLISERNHFNFIRNGWCYGNTGVMTTLFLIGQALYYYEIIKMSKKVMLQVVNDKDENLISPTICHGLSSQILMLTIMNLNFELNEVSDYITVLINKLISHYKEDYLVNFIDINENKQDVFKSRKVGLLEGELGVYLTLMTLKNTKILNEKNWTNAFLIS” here?
Answer: The value was “not soluble”.

Question: With “MIAKISHGSSLYGVLAYNQLKVDERHADVLFTSRIIEPQGDNPYTIGHLSRSFGDYLTANRKTEKPVLHISLNPDPKDCLSEERFVSLAEEYMRRMGFGDQPYIVYRHNDIGREHLHIVSVRVDETGRAISDSYEHGRSMKVCRELERQFGLVLATPKQWKEGLPLSPVGYGDGNLKGQLAGVIRPIAREWRFRTLGEYRAVLSLYGITVDEVKGEYGGREYHGLTYSATDREGNKIGKPFKSSVFGKETGVAALERRMHNAAAWEKTHKEVAAATAGKVAAAMQTAGHDRAQFERELMRQGIGVVFRQNETGRIYGATFIDHAAKAVFNGSRLGKEFSAGVFNDLFAGQEGIHLPQPSAEVEHPTRQQEHTDISQWDGQDTGYRPDHKDGTTQNVAAAFNLFAPVPGGASGDQPVPLRKRKKKRKYGRQQLEHHHHHH” as the sequence, how does the “soluble on expression in E. coli” value read?
Answer: Its value is “not soluble”.

Question: For “MTSQPTSSLQGSCSICFEDLKQNDKISAIVCGHIYHHGCISQWIATKRQCPSCRRTVPKNGFVEKLFFDVQRMGGEAEKPPEIDYREEHYKLSTSLKVEQEKLGTLNTENKNLKDTVKSLEKKIIREKDKYRQEIPKLQATINHLTISSEETAYLKRELQESKNRLKTCEFYKILTVHSSEADKQLGEYLKKNGNLDTEKFFQLMKSTNKDLTDKRREAAKEIEQLKMEVQSLKRAAQEDAAIKKV”, which “soluble on expression in E. coli” value is on record?
Answer: The value was “not soluble”.

Question: Which “soluble on expression in E. coli” value does the source give for “MSLGSMSATPLQAGLKTLQLTEPFRIAHGTSTERQVLRLRWNGAVGEAPVVPYYKESAAVTLEWLQALDWNGSPAPKDGPRLGRLALDLLWHDAVGRDKRQTLGQMLHLNPAQTPPGCRSFSIPTDLDKFAEKVAQVSRQFQVLKLKTGSGNVEFDEAIVATARKAAPDAKLLVDANGGWTVEETAAILPKLVKYDLTLVEQPFHHDGGSESWRELKYLLPSHSIPLYADESAQGPDDVLTLAGLVDGVNVKLLKCGSIAEAQTMIRFARASGMGVLLGCMIESSVGVTAAAHLAPLADWIDLDGHLYVADDDYEGVSYDEQGRLHLRDLPGLGVTPREGHHHHHH” here?
Answer: The value was “soluble”.

Question: For “MSLVYMAINAVAGTIREFSPKDIESVYRIAQTSLTEYYTQALILDLHREWPESFMVYTVAGSVVGFIVGSKYSRTEARILLFAVDERFRRMGVGSALMDAFLSLCREQNMLSVRLEVRTDNDEAIRFYKKYGFVITAMLPNYYSDSSNAYTMWRIVEGHHHHHH”, which “soluble on expression in E. coli” value is on record?
Answer: Its value is “not soluble”.

Question: Which “soluble on expression in E. coli” value does the source give for “MSTGANLLVMNDTCKSNRWWKTKQEKKHSEIKKVKTLKSTWDKKMELKAKKDMVKRVQDNIREKQVQERQEKKERKVEQEKRRLENERKAEIVQKITKIHKLKKTKKRQLRSIQMRDTTQVTK” here?
Answer: The value was “not soluble”.

Question: For “MLCAVYKSSRKADTYLFVNKRDCFDDVPQALLDMFGVPQLVMVFPIVKRESLGIADINKVRAALEEKGFYLQIPPPQVNLLAEHRENLGIKD”, which “soluble on expression in E. coli” value is on record?
Answer: The value was “soluble”.

Question: Which “soluble on expression in E. coli” value does the source give for “MAHHHHHHMEMHATHVAACSLRRLRSSAVTSRVMTSTHLSLPCRLKSYVLKFLRGQLPEDLKDLNGALGCLYGTLPDVDEFGQFVIAPEIVERFHQLGYIKLPRPVLDAQQVDKLADEVNELANNVEHHPKTEKLYATSLANLTEGPLFYCQGQWRAAWGMHDLIYLPTITVAASQILGNSIVRLWYDEVFMKEARKGPCVPWQQNYARWQHTTPVNHVTVMIALDTMNKDRGAPCLVPGSHRWREGGLLPSVPYDPAKDEAQQLNTIWEITNEEESEMLMDTPPATVDMKRGEALLIHPLTLFATHGNRSLDAVRCCFIHYMGGKTYATQNGPLLPHTTQFQAGAMIQGPFYPVVFDPAMTEELAMLPGESAAQKDITEEV” here?
Answer: Its value is “soluble”.

Question: With “MFSLSFPSSSSALLPSLVAFDSSRRLSLQPKKLNRLQSHLFSPQHLSFSQSNVSRYRAFCVSSSSPPEGTVSVVDFHEKDWSFLESMEIDSTEHTQKIERIIKAGELSESSRVLVSISSETFVDRLVESSPSQLLLIVHDSLFTLACIKEKYDKVKCWQGEMIYVPEKWSPLDAVFLYFLPALPFDLDELFKTLSQRCSSGARVVISHPQGRLGLEQQRKEFSDVVVSDLPDESTLSNVAEKHSFELTQFVDEQGLYLAVLKSSKQ” as the sequence, how does the “soluble on expression in E. coli” value read?
Answer: The value was “soluble”.

Reference: the DeepSol protein solubility set
